Values of other authors as cited in PMC5593754.

Molecular target: Glu97 (UniProt position 97, WARMAEWLCTC)
Experiment: UV-vis
Conditions: unphotolyzed (dark) state, protonated Schiff base

For “Anion channelrhodopsin 1 (GtACR1) S97E mutant (Guillardia theta; S97E)”, the pKa is listed as “∼8”.
